Earlier results as cited in publication PMC7704677.

Columns and labels:
Assay in all cases: UV-vis
Details in all cases: unphotolysed state; further details not given
Asp89 = system: Asp89
Asp75 = system: Asp75
Asp85 = Asp85 (UniProt position 98, WARYADWLFTT)
Asp95 = Asp95 (UniProt position 95, FYRYADWLLTV)

**Q.** For “Acetabularia rhodopsin I (ARI) (Acetabularia acetabulum)”, which pKa (Asp89) is on record?
**A.** Its pKa is 2.7.

**Q.** With “Anabaena sensory rhodopsin (ASR) (Anabaena (Nostoc) sp.)” as the substance, how does the pKa (Asp75) read?
**A.** Its pKa is 4.0.

**Q.** For “Bacteriorhodopsin (HsBR) (Halobacterium salinarum)”, which pKa (Asp85) is on record?
**A.** Its pKa is 2.7.

**Q.** For “Thermophilic rhodopsin (TR) (Thermus thermophilus)”, which pKa (Asp95) is on record?
**A.** The pKa was 3.4.
